Experimental data taken from patent publication US20170081672.

How the values were obtained:
[1] = test system: ALS2_T1 TALE-nuclease right subunit; assay: cell_activity; details: yeast beta-galactosidase reporter, 37 C, as pair with left subunit; SD or SE 0.02; 0.86 (0.02) at 30 C; NHEJ in N. benthamiana protoplasts 70.68% (DNA, no …)
[2] = test system: ALS2_T1 TALE-nuclease left subunit; assay: cell_activity; details: yeast beta-galactosidase reporter, 37 C, as pair with right subunit; SD or SE 0.02; 0.86 (0.02) at 30 C; NHEJ in N. benthamiana protoplasts 70.68% (DNA, no UTR)

| Sequence | activity (relative to I-SceI (max 1.0)) [1] | activity (relative to I-SceI (max 1.0)) [2] |
| --- | --- | --- |
| TGTCATGCTGGGTCAG (double strand) [ALS2_T1 right target half-site] | 0.97 | – |
| TAGCTTGTTCCACATTT (double strand) [ALS2_T1 left target half-site] | – | 0.97 |
